Measurements published in US20210253716A1 (Regeneron, published 2021).
Changes are numbered by the printed parent chain.

How the values were obtained:
[1] = molecular target: T1, full length human ACVR1 (R206H) on HEK293/BRE-luc/hACVR1-R206H-clone H2 cells (human, UniProt Q04771 21-509); assay: cell-based or functional assay
T1 sequence: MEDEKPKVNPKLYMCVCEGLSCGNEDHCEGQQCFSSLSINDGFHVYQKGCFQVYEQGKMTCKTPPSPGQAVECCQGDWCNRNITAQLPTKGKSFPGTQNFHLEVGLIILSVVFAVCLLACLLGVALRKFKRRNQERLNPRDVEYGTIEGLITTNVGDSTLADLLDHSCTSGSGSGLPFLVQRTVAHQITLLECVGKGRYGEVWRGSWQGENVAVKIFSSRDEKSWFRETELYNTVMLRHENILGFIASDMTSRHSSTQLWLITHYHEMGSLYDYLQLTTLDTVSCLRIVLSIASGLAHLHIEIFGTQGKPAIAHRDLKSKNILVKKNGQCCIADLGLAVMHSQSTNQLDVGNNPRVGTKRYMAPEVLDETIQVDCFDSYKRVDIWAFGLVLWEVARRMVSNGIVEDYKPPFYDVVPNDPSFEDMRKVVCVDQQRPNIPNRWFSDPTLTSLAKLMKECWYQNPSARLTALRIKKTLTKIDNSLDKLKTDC

[2] = molecular target: T2, human ACVR1 extracellular domain expressed with a C-terminal myc-myc-hexahistidine tag (human); assay: SPR (Biacore), mAb captured, 37 C
T2 construct: also called hACVR1-MMH
T2 chain: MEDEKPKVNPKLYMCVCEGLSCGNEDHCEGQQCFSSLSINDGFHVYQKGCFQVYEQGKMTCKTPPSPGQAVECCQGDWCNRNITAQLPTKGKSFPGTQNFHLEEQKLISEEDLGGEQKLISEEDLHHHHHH
Description: (§1) Equilibrium dissociation constants (KD) for ACVR1 binding to purified anti-ACVR1 monoclonal antibodies were determined using a real-time surface plasmon resonance biosensor (SPR-Biacore), Biacore 4000. All binding studies were performed in 10 mM HEPES, 150 mM NaCl, 3 mM EDTA, and 0.05% v/v surfactant Tween-20, pH 7.4 (HBS-ET) running buffer at 25° C. and 37° C. The Biacore CM5 sensor surface was first derivatized by amine coupling with a monoclonal mouse anti-human Fc antibody (GE, #BR-1008-39 or REGN2567) to capture anti-ACVR1 monoclonal antibodies. […] ACVR1 reagents were then injected over anti-human Fc captured anti-ACVR1 monoclonal antibody surface for 2.5-3 minutes at a flow rate of 30 μL/minute, while the dissociation of monoclonal antibody bound ACVR1 reagent was monitored for 10-15 minutes in HBS-ET running buffer. Kinetic association rate constant (kₐ) and dissociation rate constant (kd) were determined by fitting the real-time sensorgrams to a 1:1 binding model using Scrubber 2.0c curve-fitting software. Binding dissociation equilibrium constants (KD) and dissociative half-lives (t½) were calculated from the kinetic rate constants as: […]

[3] = molecular target: T3, human ACVR1 extracellular domain expressed with a C-terminal mouse IgG2a Fc tag (human); assay: SPR (Biacore), mAb captured, 37 C
T3 construct: also called hACVR1-mFc
T3 chain: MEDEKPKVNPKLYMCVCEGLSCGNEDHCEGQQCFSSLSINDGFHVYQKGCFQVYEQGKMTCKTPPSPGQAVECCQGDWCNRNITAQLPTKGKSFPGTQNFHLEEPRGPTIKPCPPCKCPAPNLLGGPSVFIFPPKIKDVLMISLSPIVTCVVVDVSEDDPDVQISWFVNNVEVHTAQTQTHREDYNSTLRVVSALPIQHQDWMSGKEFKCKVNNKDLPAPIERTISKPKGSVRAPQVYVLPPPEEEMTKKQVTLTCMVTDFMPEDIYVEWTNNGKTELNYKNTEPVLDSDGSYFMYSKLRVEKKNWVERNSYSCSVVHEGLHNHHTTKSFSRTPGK
Description: as §1

[4] = molecular target: T4, mouse ACVR1 extracellular domain expressed with a C-terminal myc-myc-hexahistidine tag (mouse); assay: SPR (Biacore), mAb captured, 37 C
T4 construct: also called mACVR1-MMH; mACVR1-mmh
T4 chain: T2 chain with M1V, P10Q
Description: as §1

[5] = molecular target: T1, full length human ACVR1 (R206H) on …; assay: flow cytometry, 66.6 nM antibody, HEK293/hACVR1-R206H cells
Description: (§2) Cells were fixed using BD CytoFix™ (Becton Dickinson, #554655) and analyzed on either Hypercyt® or IQue® Flow Cytometers (Intellicyt®). Unstained and secondary antibody alone controls were also tested for all cell lines. The results were analyzed using ForeCyt® (IntelliCyt®) software to determine the geometric means of fluorescence for viable cells and binding ratios were calculated by normalizing the geometric mean value of the test condition by the geometric mean value of the corresponding unstained cells.

[6] = molecular target: T2, human ACVR1 extracellular domain …; assay: SPR (Biacore), mAb captured, 25 C
Description: as §1

[7] = molecular target: T3, human ACVR1 extracellular domain …; assay: SPR (Biacore), mAb captured, 25 C
Description: as §1

[8] = molecular target: T4, mouse ACVR1 extracellular domain …; assay: SPR (Biacore), mAb captured, 25 C
Description: as §1

[9] = molecular target: T5, full length wild type human ACVR1 on HEK293/BRE-luc/hACVR1-wild type cells (human, UniProt Q04771 21-509); assay: flow cytometry, 66.6 nM antibody, HEK293/hACVR1-wt cells
T5 construct: also called HEK293/hACVR1-wt; hACVR1-wt
T5 sequence: T1 sequence with H186R
Description: as §2

[10] = molecular target: T4, mouse ACVR1 extracellular domain …; assay: SPR (Biacore), mAb captured, 25 C; 25 C
Description: as §1

[11] = molecular target: T1, full length human ACVR1 (R206H) on …; assay: flow cytometry, 70 nM antibody, HEK293/hACVR1-R206H cells
Description: as §2

B1: mAb22125 (antibody, human IgG4 S228P, kappa, V domains shown)
VH: QVQLVQSGAEVKKPGASVKVSCKASGYTFTGYYMHWVRQAPGQGLEWMGWINPNSVGTNFAQKFQGRVTMTRDTSISTAYMELSRLRSDDTAVYYCTRDGAAAGLFDYWGQGTLVTVSS
VL: DIQMTQSPSSLSASVGDRVTITCRASQGINNYLAWYQQKPGKVPKLLIYAASTLQSGVPSRFSGSGSGTDFTLTISSLQPEDVATYYCQKFNSAPLTFGGGTKVEIKR
B1 was tested, and the “IC50 [M], BRE-luc reporter, 3 nM hActivin A” value [1] was 1.9e-08 M, the “IC50 [M], BRE-luc reporter, 3 nM hBMP7” value [1] was 1.6e-08 M and the “900 nM or 100 nM Ag Bound (RU)” value [2] was 25 RU. The “100 nM Ag Bound (RU)” value [3] was 243 RU, the Kd [3] was 79.2 nM and the koff [3] was 0.0577 s⁻¹. The kon [3] was 729000 M⁻¹ s⁻¹, the t½ [3] was 0.2 min and the “900 nM or 100 nM Ag Bound (RU)” value [4] was 23 RU. For the same binder, the “MFI - Normalized to Unstained Control” value [5] was 235 fold, the “900 nM or 100 nM Ag Bound (RU)” value [6] was 44 RU and the Kd [6] was 1020 nM. For the same binder, the koff [6] was 0.42 s⁻¹, the kon [6] was 413000 M⁻¹ s⁻¹ and the t½ [6] was 0.03 min. The “100 nM Ag Bound (RU)” value [7] was 268 RU, the Kd [7] was 12.3 nM and the koff [7] was 0.00802 s⁻¹. For the same binder, the kon [7] was 652000 M⁻¹ s⁻¹, the t½ [7] was 1.4 min and the “900 nM or 100 nM Ag Bound (RU)” value [8] was 41 RU. The Kd [8] was 836 nM, the koff [8] was 0.575 s⁻¹ and the kon [8] was 688000 M⁻¹ s⁻¹. For the same binder, the t½ [8] was 0.02 min and the “MFI - Normalized to Unstained Control” value [9] was 183 fold.

B2: mAb27242 (antibody, human IgG4 S228P, kappa, V domains shown)
VH: QVQLQQWGAGLLKPSETLSLTCAVYNGSFSSFYWSWIRQPPGKGLEWLGEINHRGRTNNNPSLASRVTISVDTSKSQFSLRLTSVTAADTATYYCTAHTRGFLYWGQGTRVTVSS
VL: DIQMTQSPSSLSASVGDRVTITCQASQDINNYLNWYQQKPGQAPNLLIYDVFNLLPGVPSRFSGSGSGTDFSFTISSLQPEDIATYYCQHYDDLPLTFGGGTTVAIRR
In the case of B2, the “% Inhibition, BRE-luc reporter, 2 nM hBMP7” value [1] is reported as 109%, the “IC50 [M], BRE-luc reporter, 2 nM hBMP7” value [1] is reported as 1.2e-09 M and the “900 nM or 100 nM Ag Bound (RU)” value [2] is reported as 82 RU. It also gave a Kd [2] of 5.77 nM, a koff [2] of 0.00083 s⁻¹ and a kon [2] of 144000 M⁻¹ s⁻¹. For the same binder, the t½ [2] was 14 min, the “100 nM Ag Bound (RU)” value [3] was 250 RU and the Kd [3] was 0.669 nM. For the same binder, the koff [3] was 0.000189 s⁻¹, the kon [3] was 282000 M⁻¹ s⁻¹ and the t½ [3] was 61 min. The Kd [10] was 602 nM, the koff [10] was 0.144 s⁻¹ and the kon [10] was 238000 M⁻¹ s⁻¹. For the same binder, the t½ [10] was 0.08 min, the “MFI - Normalized to Unstained Control” value [11] was 1730 fold and the “900 nM or 100 nM Ag Bound (RU)” value [6] was 63 RU. The Kd [6] was 1.56 nM, the koff [6] was 0.000135 s⁻¹ and the kon [6] was 86800 M⁻¹ s⁻¹. For the same binder, the t½ [6] was 86 min, the “100 nM Ag Bound (RU)” value [7] was 199 RU and the Kd [7] was 0.202 nM. The koff [7] was 2.9e-05 s⁻¹, the kon [7] was 144000 M⁻¹ s⁻¹ and the t½ [7] was 398 min.

B3: mAb22115 (antibody, human IgG4 S228P, kappa, V domains shown)
VH: EVQLVESGGGLVQPGGSLRLSCAASGFTSSRYWMSWVRQAPGKGLEWLANINQDGSEKYYLESLRGRFTISRDNAKNSLYLQMNNLRAEDTAVYYCARDEEGYWGQGTLVTVSS
VL: DVVMTQSLLSLSVTLGQPASISCRSSQSLVYSDGDTYLSWFQQRPGQSPRRLIYKVSHRDSGVPDRFRGSGSGTDFTLKISRVEAEDVGIYYCMQGTHWPPTFGQGTKVEIKR
B3 was tested, and the “900 nM or 100 nM Ag Bound (RU)” value [2] was 86 RU, the Kd [2] was 438 nM and the koff [2] was 0.0308 s⁻¹. For the same binder, the kon [2] was 70400 M⁻¹ s⁻¹, the t½ [2] was 0.37 min and the “100 nM Ag Bound (RU)” value [3] was 317 RU. For the same binder, the Kd [3] was 30.1 nM, the koff [3] was 0.0025 s⁻¹ and the kon [3] was 83300 M⁻¹ s⁻¹. For the same binder, the t½ [3] was 4.6 min, the “900 nM or 100 nM Ag Bound (RU)” value [4] was 85 RU and the Kd [4] was 504 nM. It also gave a koff [4] of 0.0297 s⁻¹, a kon [4] of 58900 M⁻¹ s⁻¹ and a t½ [4] of 0.39 min. For the same binder, the “MFI - Normalized to Unstained Control” value [5] was 4 fold, the “900 nM or 100 nM Ag Bound (RU)” value [6] was 93 RU and the Kd [6] was 145 nM. The koff [6] was 0.00485 s⁻¹, the kon [6] was 33400 M⁻¹ s⁻¹ and the t½ [6] was 2.4 min. The “100 nM Ag Bound (RU)” value [7] was 264 RU, the Kd [7] was 11.4 nM and the koff [7] was 0.000765 s⁻¹. The kon [7] was 66900 M⁻¹ s⁻¹, the t½ [7] was 15 min and the “900 nM or 100 nM Ag Bound (RU)” value [8] was 94 RU. It also gave a Kd [8] of 171 nM, a koff [8] of 0.00478 s⁻¹ and a kon [8] of 28000 M⁻¹ s⁻¹. For the same binder, the t½ [8] was 2.4 min and the “MFI - Normalized to Unstained Control” value [9] was 4 fold.
